Measured values: US7094575B2 (priority 1999, dated 2006)
Several values for one entry are separate records, joined by “and”; a condition that tells them apart may be missing. Identical values can stand only once. Like-named read-outs stand apart in the source and are kept apart here. Where no end group is shown, it is not given here.

Columns and labels:
[1] = target: Daboiatoxin PLA2 (Daboia siamensis, UniProt Q7T2R1+Q7T3T5); type: in vivo, mice; settings: mouse, in vivo
[2] = target: daboiatoxin, the major PLA2 toxin of Daboia russelli siamensis venom (Daboia siamensis, UniProt Q7T2R1+Q7T3T5); type: biochemical
[3] = test system: Daboia russelli siamensis venom; type: in vivo, mice
[4] = test system: PLA2 activity of Daboia russelli siamensis venom; type: biochemical
[5] = test system: Daboia russelli siamensis (Thailand) venom; type: in vivo, mice
[6] = test system: Daboia russelli pulchella (Sri Lanka) venom; type: in vivo, mice
[7] = test system: Daboia russelli russelli (India) venom; type: in vivo, mice
[8] = test system: Daboia russelli siamensis venom; type: in vivo, mice; settings: Table 6; for Paw oedema: 45 min, n = 3
[9] = target: T1, Daboiatoxin PLA2 (Daboia siamensis, UniProt Q7T2R1+Q7T3T5); type: in vivo, mice
T1 sequence (Q7T2R1 whole entry, looked up): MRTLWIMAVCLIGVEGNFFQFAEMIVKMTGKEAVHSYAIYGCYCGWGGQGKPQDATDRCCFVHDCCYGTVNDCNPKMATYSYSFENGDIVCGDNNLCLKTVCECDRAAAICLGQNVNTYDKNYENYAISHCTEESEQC
T1 sequence (Q7T3T5 whole entry, looked up): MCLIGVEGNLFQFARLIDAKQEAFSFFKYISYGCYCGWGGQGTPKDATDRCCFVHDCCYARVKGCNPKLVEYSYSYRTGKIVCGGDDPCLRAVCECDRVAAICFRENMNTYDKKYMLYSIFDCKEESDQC

[10] = not given; remark: listed apart in the source

For GAFGIFTEDSTEK [PP-0005], the “Anti-Inflammatory Activity” value [1] was “Negative”, the “PLA2-inhibitory activity (in words)” value [2] was “fails to inhibit PLA2 activity” and the “PLA2 inhibition (%)” value [2] was −13%.

With LSLQNGLYK [PP-0006] the “IC50” value [2] was 250 µg and the “PLA2 inhibition (%)” value [2] was 70%.

With PGLPLSLQNG [P-0029] the “IC50” value [2] was 40 µg, the “PLA2 inhibition (%)” value [2] was 90% and the “Oedema (mg), inhibitor alone” value (mouse, in vivo) was 13 ± 2 mg.

For PLPGLPLSKP [P-0009], the “IC50” value [2] was 125 µg and the “PLA2 inhibition (%)” value [2] was 80%.

For PLPGLPLSLQNGLYCPGAFGIF [PP-0036], the “Anti-Inflammatory Activity” value [1] was “Negative”, the “PLA2-inhibitory activity (in words)” value [2] was “devoid of PLA2-inhibitory activity” and the “PLA2 inhibition (%)” value [2] was −3.0%.

In the case of PLPGLPLSLQNGLYK [PP-0008], the “Anti-Inflammatory Activity” value [1] is reported as “Negative”, the “PLA2-inhibitory activity (in words)” value [2] is reported as “insignificant” and the “PLA2 inhibition (%)” value [2] is reported as 18%.

B1: PAF: 140-kDa hexameric glycoprotein of six 23-kDa subunits purified from Python reticulatus serum; SEQ ID NO: 6 (protein, listed as Python reticulatus)
chain: MKSLQTICLLFIFIARGTSDKCEICHGFGDDCDGYQEECPSPEDRCGKILIDIALAPVSFRATHKNCFSSSICKLGRVDIHVWDGVYIRGRTNCCDNDQCEDQPLPGLPLSLQNGLYCPGAFGIFTEDSTEHEVKCRGTETMCLDLVGYRQESYAGNITYNIKGCVSSCPLVTLSERGHEGRKNDLKKVECREALKPASSD
In the case of B1, the “Protection against lethality, Survival/total” value (shortened to “Protection … Survival/total”) ([3]; 24 hr) is reported as 4/4, the “% neutralisation” value ([3]; mouse, in vivo, ip) is reported as 100% and the “Inhibitory activity (IC50)” value [4] is reported as 0.2 mg. The “Protection … Survival/total” value ([5]; 24 hr) was 3/3, the “% neutralisation” value ([5]; mouse, in vivo, ip) was 100% and the “Protection … Survival/total” value ([6]; 24 hr) was 3/3. For the same molecule, the “% neutralisation” value ([6]; mouse, in vivo, ip) was 100%, the “Protection … Survival/total” value ([7]; 24 hr) was 3/3 and the “% neutralisation” value ([7]; mouse, in vivo, ip) was 100%. For the same molecule, the “% Inhibition (mean)” value ([8]; venom 5 μg + 25 μg inhibitor) was 7.8%, the “Paw oedema” value ([8]; venom 5 μg + 25 μg inhibitor subplantar, PAF is recombinant) was 107 ± 20 mg and the “% Inhibition (mean)” value ([8]; venom 5 μg + 50 μg inhibitor) was 46.5%. The “Paw oedema” value ([8]; venom 5 μg + 50 μg inhibitor) was 62 ± 2.2 mg, the “% Inhibition (mean)” value ([8]; venom 5 μg + 100 μg inhibitor) was 74.6% and the “Paw oedema” value ([8]; venom 5 μg + 100 μg inhibitor) was 29 ± 0.8 mg. The “Paw oedema” value ([9]; 45 min, n = 3) was 18 ± 6.0 mg and 13 ± 0.4 mg, the “% Inhibition (mean)” value ([9]; mouse, in vivo) was 89.4% and 92.1% and the “Survival/total, PAF alone” value ([10]; 24 hr) was 3/3. The “toxicity of native PAF” value ([10]; mice) was “non-toxic”, the “% Inhibition (mean) column, inhibitor alone” value (mouse, in vivo) was “n.s” and the “Paw oedema (mg), inhibitor alone” value (n = 3) was 10 ± 5.2 mg.
